Measured values from paper PMC13456619, “The (Glg)ABCs of cyanobacteria: modelling of glycogen synthesis and functional divergence of glycogen synthases in Synechocystis sp. PCC 6803” (Febs Letters, 2026).

B1: GlgA1 (Synechocystis sp. PCC 6803 substr. Kazusa) (protein)
chain: MKILFVAAEVSPLAKVGGMGDVVGSLPKVLHQLGHDVRVFMPYYGFIGDKIDVPKEPVWKGEAMFQQFAVYQSYLPDTKIPLYLFGHPAFDSRRIYGGDDEAWRFTFFSNGAAEFAWNHWKPEIIHCHDWHTGMIPVWMHQSPDIATVFTIHNLAYQGPWRGLLETMTWCPWYMQGDNVMAAAIQFANRVTTVSPTYAQQIQTPAYGEKLEGLLSYLSGNLVGILNGIDTEIYNPAEDRFISNVFDADSLDKRVKNKIAIQEETGLEINRNAMVVGIVARLVEQKGIDLVIQILDRFMSYTDSQLIILGTGDRHYETQLWQMASRFPGRMAVQLLHNDALSRRVYAGADVFLMPSRFEPCGLSQLMAMRYGCIPIVRRTGGLVDTVSFYDPINEAGTGYCFDRYEPLDCFTAMVRAWEGFRFKADWQKLQQRAMRADFSWYRSAGEYIKVYKGVVGKPEELSPMEEEKIAELTASYR
notes: full-length, N-terminal His tag, expressed in E. coli, IMAC and anion exchange
B2: GlgA2 (Synechocystis sp. PCC 6803 substr. Kazusa) (protein)
chain: MYIVQIASECAPVIKAGGLGDVIYGLSRELELRGHCVELILPMYDCMRYDHIWGLHDAYRNLEVPWYGSSIFCDVFCGWVHGRLCFFIQPKSSDNFFNRGHYYGALDDHMRFAFFSKAAMEFLLRSNKRPDIIHCHDWQTGLVPVLLYEIYRFHGMDHQRVCYTIHNFKHQGIAGANILHATGLNNDSYYFSYDRLQDNFNPNAINFMKGGIVYSNYVNTVSPHHAWEARFSDISCGLGHTLEIHQQKFGGILNGLDYEVWNPEIDPLLASNFSVKTFGDKAKNKQALRERLLLETDDKKPMLCFIGRLDGQKGVHLVHHSIYYALSQGAQFVLLGSATEPNLSKWFWHEKQHLNDNPNVHLELGFDEELAHLIYGAADIIVVPSNYEPCGLTQMIGLRYGAVPVVRGVGGLVNTVFDRDYDQNHPPEKRNGFVFYQPDEYALETALSRAIALYKDDPVAFKTLALQGMAYDYSWNKPGLQYVEAYEYIRA
notes: full-length in pET28a, N-terminal His tag, expressed in E. coli, IMAC and anion exchange
B3: GlgA^ E.coli (Escherichia coli K-12) (protein)
chain: MQVLHVCSEMFPLLKTGGLADVIGALPAAQIADGVDARVLLPAFPDIRRGVTDAQVVSRRDTFAGHITLLFGHYNGVGIYLIDAPHLYDRPGSPYHDTNLFAYTDNVLRFALLGWVGAEMASGLDPFWRPDVVHAHDWHAGLAPAYLAARGRPAKSVFTVHNLAYQGMFYAHHMNDIQLPWSFFNIHGLEFNGQISFLKAGLYYADHITAVSPTYAREITEPQFAYGMEGLLQQRHREGRLSGVLNGVDEKIWSPETDLLLASRYTRDTLEDKAENKRQLQIAMGLKVDDKVPLFAVVSRLTSQKGLDLVLEALPGLLEQGGQLALLGAGDPVLQEGFLAAAAEYPGQVGVQIGYHEAFSHRIMGGADVILVPSRFEPCGLTQLYGLKYGTLPLVRRTGGLADTVSDCSLENLADGVASGFVFEDSNAWSLLRAIRRAFVLWSRPSLWRFVQRQAMAMDFSWQVAAKSYRELYYRLK
notes: as for B2

Key:
purified protein [1] = substrate: Nc1ncnc2c1ncn2[C@@H]1O[C@H](COP(=O)(O)OP(=O)(O)O[C@H]2O[C@H](CO)[C@@H](O)[C@H](O)[C@H]2O)[C@@H](O)[C@H]1O; assay: purified protein; type: biochemical, Synechocystis sp. PCC 6803; details: 1 mg/mL bovine glycogen primer, 12 mM MgCl2, 50 mM HEPES-NaOH pH 8.0, 30 °C, no GlgB
purified protein [2] = substrate: Nc1ncnc2c1ncn2[C@@H]1O[C@H](COP(=O)(O)OP(=O)(O)O[C@H]2O[C@H](CO)[C@@H](O)[C@H](O)[C@H]2O)[C@@H](O)[C@H]1O; assay: purified protein; type: biochemical, Escherichia coli; details: 1 nM enzyme, 1 mg/mL bovine glycogen primer, 12 mM MgCl2, 50 mM HEPES-NaOH pH 8.0, 30 °C, no GlgB

| Protein | Km (purified protein [1]) | Km (purified protein [2]) |
| --- | --- | --- |
| B1 | 152 ± 3.6 µM | – |
| B2 | 219 ± 9.9 µM | – |
| B3 | – | 275 ± 17 µM |
